From article PMC4894983

Target: T1, CsrA-Strep (Campylobacter jejuni NCTC11168) (UniProt Q0P9F1)
T1 sequence: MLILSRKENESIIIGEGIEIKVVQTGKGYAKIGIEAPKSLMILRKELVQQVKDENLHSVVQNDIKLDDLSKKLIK
Assay: EMSA

| Substance | binding |
| --- | --- |
| GGAAAUUAAAAUUUUAAAAAGGAAGUUAAAAUGUCAAAACCAUUAAAUGAAGAGAUUUUUGUUGAAUUUAAAAGUGAUCUAGCUGAAAGAAAAAAUGAAGUUUUGCUUCAAGUUUUAGA [Cj0040 mRNA] | binds |
| GGAUUAUAACUAAGAUCAAGGAGGCAGAAAUGAUCAAUCCUAUACAACAAAGUUAUGUGGCAAAUACCGCAUUAAAUACAAAUAGAAUAGAUAAAG [flgM mRNA] | binds |

System: CsrA-Strep (Campylobacter jejuni NCTC11168)
Assay: EMSA

| Substance | Kd [µM] |
| --- | --- |
| flaA WT leader | 0.05 |
| flaG leader | > 0.35 |
| flaB leader | > 0.35 |
| flgI leader | > 0.35 |
